Assay results taken from patent US10562947B2, “Compositions and methods for preventing or treating diseases, conditions or processes characterized by aberrant fibroblast proliferation and extracellular matrix deposition” (MOERAE MATRIX, INC., priority 2011, dated 2020).

How the values were obtained:
Test in all cases: Kinase Profiling Assay
Assay type in all cases: biochemical
Conditions in all cases: 100 μM peptide
EphA5(h) = EphA5(h) (Homo sapiens, UniProt P54756)
Summary of the method: (§1)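 All 266 human kinases of a profiling service were assayed in duplicate to establish whether MK2 inhibitory peptides act specifically.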

Arg(h) = Arg(h) (Homo sapiens, UniProt P42684)
Summary of the method: as §1

TAO1(h) = target: T1, TAO1(h) (Homo sapiens, UniProt Q7L7X3)
T1 sequence (Q7L7X3 1-1001): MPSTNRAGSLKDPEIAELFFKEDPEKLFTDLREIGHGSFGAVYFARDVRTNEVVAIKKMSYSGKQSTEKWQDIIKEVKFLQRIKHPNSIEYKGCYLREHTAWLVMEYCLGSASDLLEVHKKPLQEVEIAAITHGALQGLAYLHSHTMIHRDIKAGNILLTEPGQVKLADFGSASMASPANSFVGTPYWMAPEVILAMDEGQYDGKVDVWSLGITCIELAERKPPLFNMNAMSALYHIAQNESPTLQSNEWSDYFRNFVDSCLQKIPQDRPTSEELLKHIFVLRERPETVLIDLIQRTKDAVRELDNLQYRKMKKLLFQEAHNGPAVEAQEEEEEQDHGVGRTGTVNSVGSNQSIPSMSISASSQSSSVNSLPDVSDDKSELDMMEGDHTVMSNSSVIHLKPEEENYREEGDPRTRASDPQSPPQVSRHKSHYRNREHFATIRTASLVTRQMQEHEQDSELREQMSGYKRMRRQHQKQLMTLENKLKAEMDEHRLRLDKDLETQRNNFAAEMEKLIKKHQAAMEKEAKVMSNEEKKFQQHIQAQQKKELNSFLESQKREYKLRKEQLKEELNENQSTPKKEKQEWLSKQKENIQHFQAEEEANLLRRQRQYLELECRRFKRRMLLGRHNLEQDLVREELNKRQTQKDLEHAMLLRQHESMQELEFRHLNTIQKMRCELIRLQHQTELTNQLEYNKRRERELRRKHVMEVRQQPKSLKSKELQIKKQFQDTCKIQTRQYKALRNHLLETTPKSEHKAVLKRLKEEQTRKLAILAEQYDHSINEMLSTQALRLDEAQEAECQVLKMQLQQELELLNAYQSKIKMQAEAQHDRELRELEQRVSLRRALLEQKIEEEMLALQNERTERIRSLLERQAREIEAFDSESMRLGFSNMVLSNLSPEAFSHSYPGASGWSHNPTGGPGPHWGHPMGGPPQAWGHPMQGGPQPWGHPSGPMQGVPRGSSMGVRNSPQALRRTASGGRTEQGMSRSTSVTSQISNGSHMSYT
Summary of the method: as §1

TAO2(h) = target: T2, TAO2(h) (Homo sapiens, UniProt Q9UL54)
T2 sequence (Q9UL54 1-1235): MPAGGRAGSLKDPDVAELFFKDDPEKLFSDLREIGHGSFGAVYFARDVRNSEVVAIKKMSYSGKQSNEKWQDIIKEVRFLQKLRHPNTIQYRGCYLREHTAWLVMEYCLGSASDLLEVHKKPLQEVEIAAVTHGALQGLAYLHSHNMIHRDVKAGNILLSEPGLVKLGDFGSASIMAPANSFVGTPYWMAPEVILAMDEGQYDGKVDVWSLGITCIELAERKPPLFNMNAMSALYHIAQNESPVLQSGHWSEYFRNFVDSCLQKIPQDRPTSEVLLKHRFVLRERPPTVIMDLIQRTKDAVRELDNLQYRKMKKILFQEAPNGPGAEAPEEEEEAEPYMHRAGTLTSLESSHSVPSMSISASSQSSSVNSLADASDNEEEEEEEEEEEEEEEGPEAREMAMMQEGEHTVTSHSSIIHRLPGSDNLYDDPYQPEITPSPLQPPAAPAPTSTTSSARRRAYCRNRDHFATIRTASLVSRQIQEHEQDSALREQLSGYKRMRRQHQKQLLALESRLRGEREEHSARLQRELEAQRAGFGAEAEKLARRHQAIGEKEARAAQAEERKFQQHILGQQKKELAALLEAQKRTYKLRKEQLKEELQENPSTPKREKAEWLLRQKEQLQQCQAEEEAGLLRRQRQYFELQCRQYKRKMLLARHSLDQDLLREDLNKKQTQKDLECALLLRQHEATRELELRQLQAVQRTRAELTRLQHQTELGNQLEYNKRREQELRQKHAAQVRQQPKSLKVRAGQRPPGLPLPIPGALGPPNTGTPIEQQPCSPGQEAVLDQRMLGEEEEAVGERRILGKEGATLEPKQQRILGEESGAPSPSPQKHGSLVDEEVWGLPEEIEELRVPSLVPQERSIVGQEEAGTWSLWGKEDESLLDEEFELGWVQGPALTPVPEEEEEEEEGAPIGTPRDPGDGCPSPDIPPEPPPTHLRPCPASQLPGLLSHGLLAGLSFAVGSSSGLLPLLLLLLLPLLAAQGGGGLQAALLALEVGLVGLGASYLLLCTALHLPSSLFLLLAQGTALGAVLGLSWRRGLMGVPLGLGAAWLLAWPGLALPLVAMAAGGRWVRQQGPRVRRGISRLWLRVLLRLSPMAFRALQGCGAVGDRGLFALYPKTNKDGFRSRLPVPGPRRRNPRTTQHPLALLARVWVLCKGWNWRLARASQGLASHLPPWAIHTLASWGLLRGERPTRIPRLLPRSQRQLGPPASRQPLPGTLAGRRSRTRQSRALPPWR
Summary of the method: as §1

ALK4(h) = target: T3, ALK4(h) (Homo sapiens, UniProt P36896)
T3 sequence (P36896 24-505): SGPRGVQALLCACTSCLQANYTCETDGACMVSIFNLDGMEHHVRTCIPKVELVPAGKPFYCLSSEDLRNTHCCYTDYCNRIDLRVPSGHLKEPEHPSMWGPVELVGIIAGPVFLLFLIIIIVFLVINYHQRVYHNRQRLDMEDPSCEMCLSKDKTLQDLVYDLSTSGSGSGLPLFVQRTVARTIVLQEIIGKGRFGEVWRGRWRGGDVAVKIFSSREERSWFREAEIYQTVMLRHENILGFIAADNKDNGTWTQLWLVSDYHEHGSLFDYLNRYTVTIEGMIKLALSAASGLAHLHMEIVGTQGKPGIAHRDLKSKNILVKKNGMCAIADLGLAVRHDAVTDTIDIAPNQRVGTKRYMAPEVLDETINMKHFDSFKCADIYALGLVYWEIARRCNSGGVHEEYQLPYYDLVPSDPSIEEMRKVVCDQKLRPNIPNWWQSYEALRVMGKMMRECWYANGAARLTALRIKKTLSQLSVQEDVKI
Summary of the method: as §1

Fgr(h) = Fgr(h) (Homo sapiens, UniProt P09769)
Summary of the method: as §1

Chain of EphA5(h) (P54756 25-1037): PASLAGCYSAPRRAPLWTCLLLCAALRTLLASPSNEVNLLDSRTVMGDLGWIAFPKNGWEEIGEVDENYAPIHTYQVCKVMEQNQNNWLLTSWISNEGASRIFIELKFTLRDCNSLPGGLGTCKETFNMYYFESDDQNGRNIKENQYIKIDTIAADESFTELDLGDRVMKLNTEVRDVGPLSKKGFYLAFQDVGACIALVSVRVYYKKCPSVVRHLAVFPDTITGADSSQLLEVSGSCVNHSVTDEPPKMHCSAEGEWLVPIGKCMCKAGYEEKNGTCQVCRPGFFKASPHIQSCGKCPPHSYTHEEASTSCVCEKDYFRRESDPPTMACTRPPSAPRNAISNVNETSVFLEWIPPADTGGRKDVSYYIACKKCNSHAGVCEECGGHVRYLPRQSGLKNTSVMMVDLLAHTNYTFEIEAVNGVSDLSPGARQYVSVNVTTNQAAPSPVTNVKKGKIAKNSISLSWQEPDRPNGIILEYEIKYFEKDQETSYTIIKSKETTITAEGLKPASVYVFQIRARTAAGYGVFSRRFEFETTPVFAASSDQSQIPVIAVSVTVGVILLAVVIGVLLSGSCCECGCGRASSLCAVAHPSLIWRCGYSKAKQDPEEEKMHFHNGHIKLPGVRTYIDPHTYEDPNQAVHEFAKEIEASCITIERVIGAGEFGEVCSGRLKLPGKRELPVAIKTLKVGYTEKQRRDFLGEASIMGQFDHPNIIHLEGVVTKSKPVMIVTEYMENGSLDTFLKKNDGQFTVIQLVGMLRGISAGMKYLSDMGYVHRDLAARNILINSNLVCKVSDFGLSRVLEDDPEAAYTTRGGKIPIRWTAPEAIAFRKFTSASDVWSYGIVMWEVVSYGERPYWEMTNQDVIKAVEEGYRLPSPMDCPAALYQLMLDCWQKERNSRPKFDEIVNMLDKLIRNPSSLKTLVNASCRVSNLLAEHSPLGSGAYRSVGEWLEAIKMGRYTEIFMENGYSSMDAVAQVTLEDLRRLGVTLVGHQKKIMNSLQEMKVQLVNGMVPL
Chain of Arg(h) (P42684 whole entry): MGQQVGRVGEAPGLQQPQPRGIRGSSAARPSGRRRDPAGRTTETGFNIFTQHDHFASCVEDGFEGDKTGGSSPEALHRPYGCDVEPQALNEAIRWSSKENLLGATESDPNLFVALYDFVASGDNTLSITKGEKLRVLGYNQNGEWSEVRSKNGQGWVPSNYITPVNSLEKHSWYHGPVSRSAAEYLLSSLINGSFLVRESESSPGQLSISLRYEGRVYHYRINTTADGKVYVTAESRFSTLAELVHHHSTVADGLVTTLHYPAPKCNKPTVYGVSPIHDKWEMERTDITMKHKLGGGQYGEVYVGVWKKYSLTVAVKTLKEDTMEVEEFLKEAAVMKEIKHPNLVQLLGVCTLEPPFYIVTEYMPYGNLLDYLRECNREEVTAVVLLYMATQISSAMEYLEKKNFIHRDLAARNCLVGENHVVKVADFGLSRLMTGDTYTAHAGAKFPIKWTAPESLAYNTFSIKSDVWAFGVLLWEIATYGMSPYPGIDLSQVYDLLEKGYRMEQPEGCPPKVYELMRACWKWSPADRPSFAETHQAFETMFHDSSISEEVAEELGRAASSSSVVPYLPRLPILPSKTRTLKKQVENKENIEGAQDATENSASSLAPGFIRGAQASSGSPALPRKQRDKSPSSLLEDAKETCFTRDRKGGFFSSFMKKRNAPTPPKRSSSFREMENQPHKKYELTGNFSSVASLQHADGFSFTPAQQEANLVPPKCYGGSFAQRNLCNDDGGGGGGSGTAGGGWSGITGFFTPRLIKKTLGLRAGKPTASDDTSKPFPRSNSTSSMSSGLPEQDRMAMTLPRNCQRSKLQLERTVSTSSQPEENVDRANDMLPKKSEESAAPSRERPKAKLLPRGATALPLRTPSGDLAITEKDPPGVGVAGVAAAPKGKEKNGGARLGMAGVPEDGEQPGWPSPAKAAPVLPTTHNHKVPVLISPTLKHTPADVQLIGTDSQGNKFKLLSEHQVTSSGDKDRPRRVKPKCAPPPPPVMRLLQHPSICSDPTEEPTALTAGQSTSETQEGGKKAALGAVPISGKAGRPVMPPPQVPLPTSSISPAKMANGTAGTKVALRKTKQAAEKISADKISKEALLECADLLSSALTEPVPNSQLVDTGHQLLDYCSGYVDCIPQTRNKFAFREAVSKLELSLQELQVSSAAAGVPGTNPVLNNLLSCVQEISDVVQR

Row | Sequence | EphA5(h) % activity (EphA5(h)) | Arg(h) % activity (Arg(h)) | TAO1(h) % activity (TAO1(h)) | TAO2(h) % activity (TAO2(h)) | ALK4(h) % activity (ALK4(h)) | Fgr(h) % activity (Fgr(h))
1 | HRRIKAWLKKIKALARQLGVAA (Mammalian) [MMI-0500] | 42% | 22% | 24% | 15% | 81% | –
2 | KAFAKLAARLYRKALARQLGVAA [MMI-0400] | 24% | 84% | 73% | 74% | 130% | 47%
3 | FAKLAARLYRKALARQLGVAA [MMI-0300] | 18% | 72% | 82% | 70% | 140% | 60%
4 | YARAAARQARAKALNRQLGVA (Mammalian) [MMI-0200] | 123% | 82% | – | 93% | 152% | 71%
